Data reported in patent publication EP4759829A1 (The University of Tokyo, dated 2025).
Where “and” joins values, the source holds several entries; their conditions need not be identical. Equal entries are not always repeated. Blank lines part the entries; values can stand above or below the binder they belong to.

Experiments:
[1] = target: T1, human HVEM on cells (HEK293T cells expressing HVEM; Mesenchymal subtype GBM cells) (human, UniProt Q92956 39-283); experiment: cell-based or functional assay
T1 sequence (looked up): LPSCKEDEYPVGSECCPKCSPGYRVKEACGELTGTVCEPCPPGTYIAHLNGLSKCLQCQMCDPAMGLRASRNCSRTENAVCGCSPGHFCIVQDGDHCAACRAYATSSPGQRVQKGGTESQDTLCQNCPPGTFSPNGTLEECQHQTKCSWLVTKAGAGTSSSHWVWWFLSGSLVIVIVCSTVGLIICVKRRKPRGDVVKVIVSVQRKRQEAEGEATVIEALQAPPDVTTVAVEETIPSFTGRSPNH

[2] = target: T2, human HVEM extracellular domain recombinant protein (Sino Biological Japan Inc. 10334-H08H) (human, UniProt Q92956 39-202); experiment: SPR (BIAcore T200), antibody captured by anti-human IgG on CM5 chip, HVEM extracellular domain as analyte
T2 construct: extracellular domain; Bought protein
T2 sequence (looked up): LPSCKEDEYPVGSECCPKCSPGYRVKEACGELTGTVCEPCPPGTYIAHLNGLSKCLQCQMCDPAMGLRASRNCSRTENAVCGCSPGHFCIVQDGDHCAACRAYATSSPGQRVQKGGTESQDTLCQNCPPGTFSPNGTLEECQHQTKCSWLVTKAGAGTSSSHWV

[3] = target: T1, human HVEM on cells (HEK293T cells …); experiment: cell ELISA on fixed HEK293T cells expressing HVEM, anti-His-HRP detection
[4] = target: T2, human HVEM extracellular domain …; experiment: SPR (BIAcore T200), biotinylated VHH-3-Avitag on SA chip, HVEM extracellular domain as analyte

B1: humanized anti-human HVEM antibody (HVR80) conjugated with monomethyl auristatin E (MMAE) (other)
chain: EVQLVESGGGLVQPGGSLRLSCAASGSIGSIHRWDWYRQAPGKQREWVATLNSEGGPTYADSVEGRFTISRDNSKNTLYLQMNSLRPEDTAVYRCAARTVPFEYWGQGTLVTVSSGPPCPPCPAPEFLGGPSVFLFPPKPKDTLMISRTPEVTCVVVDVSQEDPEVQFNWYVDGVEVHNAKTKPREEQFNSTYRVVSVLTVLHQDWLNGKEYKCKVSNKGLPSSIEKTISKAKGQPREPQVYTLPPSQEEMTKNQVSLTCLVKGFYPSDIAVEWESNGQPENNYKTTPPVLDSDGSFFLYSRLTVDKSRWQEGNVFSCSVMHEALHNHYTQKSLSLSLGK
modifications: conjugated with monomethyl auristatin E (MMAE) using Glyclick ADC MMAE (Genovis AB); site not stated
IC50 of cell viability of HEK293T-HVEM cells, 3 days [1]: 70 ng/ml and 0.9 nM

B2: humanized anti-human HVEM antibody (HVR80) conjugated with PNU (other)
chain: B1 chain
modifications: conjugated with PNU using Glyclick ADC PNU (Genovis AB); site not stated
IC50 of cell viability of HEK293T-HVEM cells, 3 days [1]: 30 ng/ml and 0.4 nM

The next lines start with the values.

Kd [2]: 59 nM
B3: humanized anti-human HVEM antibody (HVR80) (Fc fusion)
chain: B1 chain
notes: Printed molecular weight about 77,000

EC50 [3]: 1.94 nM
B4: alpaca anti-human HVEM antibody (VHH-3), 6×His-tagged (VHH)
VHH: QVQLVESGGGSVQPGGSLRLSCAASGSIGSIHRWDWYRLCPGKQREWVATLNSEGGPTYADSVEGRFTISRDNAKNMVYLQMNSLKPEDTAVYRCSARTVPFEYWGRGTQVTVSS
notes: also called 6×His-tagged VHH-3 antibody; not shown: 6×His tag

Kd [4]: 19 nM
B5: alpaca anti-human HVEM antibody (VHH-3) tagged C-terminally with biotinylated Avitag (VHH)
VHH: B4 VHH
modifications: biotinylated Avitag at the C-terminus
notes: not shown: C-terminal Avitag (biotinylated)
